The source of these data is paper PMC11089037, “Structural basis of negative regulation of CRISPR-Cas7-11 by TPR-CHAT”.

For one series, the target named is DiCas7-11 (Desulfonema ishimotonii, UniProt A0A401FT36 1-1601). Kind of series: cryo-EM; EMSA: 40 mM Tris-HCl pH 7.5, 60 mM NaCl, 6 mM MgCl2, 30 min at 4 C; 15% native PAGE; cryo-EM samples: 20 mM HEPES-NaOH pH 8.0, 300 mM NaCl, 0.5 mM DTT. The note with it: protein: recombinant; tags: N-terminal 8xHis-SUMO-TEV; single strand, V-shaped 5' repeat. A general note: In EMSA bound probe runs differently from free probe, usually more slowly.
Chain of DiCas7-11 (A0A401FT36 entry or part of it): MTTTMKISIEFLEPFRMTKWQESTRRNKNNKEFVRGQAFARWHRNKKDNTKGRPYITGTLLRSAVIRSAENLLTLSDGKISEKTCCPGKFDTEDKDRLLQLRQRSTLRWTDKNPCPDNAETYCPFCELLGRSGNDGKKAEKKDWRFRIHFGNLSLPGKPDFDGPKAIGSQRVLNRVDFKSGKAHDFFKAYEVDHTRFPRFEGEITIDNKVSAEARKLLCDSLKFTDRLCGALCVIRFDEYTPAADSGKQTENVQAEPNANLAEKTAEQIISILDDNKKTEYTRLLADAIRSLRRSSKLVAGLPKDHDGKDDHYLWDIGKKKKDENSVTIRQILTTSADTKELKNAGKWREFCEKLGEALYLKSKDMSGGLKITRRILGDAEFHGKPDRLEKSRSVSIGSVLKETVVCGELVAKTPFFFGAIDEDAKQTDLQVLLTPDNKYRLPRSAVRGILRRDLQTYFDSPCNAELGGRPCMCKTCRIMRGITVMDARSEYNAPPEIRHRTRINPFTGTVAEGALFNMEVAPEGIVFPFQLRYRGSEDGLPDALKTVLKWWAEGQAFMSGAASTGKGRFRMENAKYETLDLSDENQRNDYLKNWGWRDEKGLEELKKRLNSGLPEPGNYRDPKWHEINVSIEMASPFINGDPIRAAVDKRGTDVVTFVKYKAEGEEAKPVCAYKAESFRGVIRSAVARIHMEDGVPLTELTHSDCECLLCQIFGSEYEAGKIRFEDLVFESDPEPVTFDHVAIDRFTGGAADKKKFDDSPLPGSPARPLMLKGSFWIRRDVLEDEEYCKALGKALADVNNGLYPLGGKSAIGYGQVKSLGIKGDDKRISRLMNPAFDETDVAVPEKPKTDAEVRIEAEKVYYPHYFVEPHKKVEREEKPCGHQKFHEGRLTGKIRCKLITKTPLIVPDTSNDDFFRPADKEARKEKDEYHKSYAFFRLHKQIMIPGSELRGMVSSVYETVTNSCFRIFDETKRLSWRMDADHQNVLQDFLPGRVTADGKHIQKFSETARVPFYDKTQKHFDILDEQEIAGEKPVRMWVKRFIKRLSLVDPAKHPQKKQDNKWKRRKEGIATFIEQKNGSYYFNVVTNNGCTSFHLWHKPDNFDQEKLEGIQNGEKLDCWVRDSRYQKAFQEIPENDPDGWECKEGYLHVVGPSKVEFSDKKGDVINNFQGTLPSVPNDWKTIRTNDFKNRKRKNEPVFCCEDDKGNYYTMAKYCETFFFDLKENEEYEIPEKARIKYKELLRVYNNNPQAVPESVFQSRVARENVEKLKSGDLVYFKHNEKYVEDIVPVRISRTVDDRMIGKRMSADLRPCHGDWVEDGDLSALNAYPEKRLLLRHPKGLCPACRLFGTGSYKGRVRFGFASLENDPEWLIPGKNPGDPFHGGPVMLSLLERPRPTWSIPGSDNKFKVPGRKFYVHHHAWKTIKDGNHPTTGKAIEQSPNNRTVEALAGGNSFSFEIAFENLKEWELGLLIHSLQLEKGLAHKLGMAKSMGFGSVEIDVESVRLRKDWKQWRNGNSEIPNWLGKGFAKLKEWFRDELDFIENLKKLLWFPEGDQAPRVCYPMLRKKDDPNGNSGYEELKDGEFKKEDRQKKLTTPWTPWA

In a further series the target is DiCas7-11;DiTPR-CHAT NTD (Desulfonema ishimotonii;Desulfonema …, UniProt A0A401FT36;A0A401FT52 1-1601;1-65, |). Kind of series: cryo-EM; with TPR-CHAT NTD; EMSA: 40 mM Tris-HCl pH 7.5, 60 mM NaCl, 6 mM MgCl2, 30 min at 4 C; 15% native PAGE; cryo-EM samples: 20 mM HEPES-NaOH pH 8.0, 300 mM NaCl, 0.5 mM DTT. As to conditions: protein: recombinant;recombinant; tags: N-terminal 8xHis-SUMO-TEV;C-terminal 2xStrep; copies: 1;1; single strand, V-shaped 5' repeat.
Chain of DiCas7-11;DiTPR-CHAT NTD (chain, as listed by the source |, chain 1 of 2): as the sequence (A0A401FT36 entry or part of it) above
Chain of DiCas7-11;DiTPR-CHAT NTD (chain, as listed by the source |, chain 2 of 2): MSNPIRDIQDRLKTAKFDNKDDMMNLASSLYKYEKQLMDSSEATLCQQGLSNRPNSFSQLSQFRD

For the next series, the target named is DiCas7-11;DiTPR-CHAT (Desulfonema ishimotonii;Desulfonema …, UniProt A0A401FT36;A0A401FT52 1-1601;1-751, |). The experiment in a line: cryo-EM; with full-length TPR-CHAT; EMSA: 40 mM Tris-HCl pH 7.5, 60 mM NaCl, 6 mM MgCl2, 30 min at 4 C; 15% native PAGE; cryo-EM samples: 20 mM HEPES-NaOH pH 8.0, 300 mM NaCl, 0.5 mM DTT. As to conditions: protein: recombinant;recombinant; tags: N-terminal 8xHis-SUMO-TEV;C-terminal 2xStrep; copies: 1;1; single strand, V-shaped 5' repeat.
Chain of DiCas7-11;DiTPR-CHAT (chain, as listed by the source |, chain 1 of 2): as the sequence (A0A401FT36 entry or part of it) above
Chain of DiCas7-11;DiTPR-CHAT (chain, as listed by the source |, chain 2 of 2): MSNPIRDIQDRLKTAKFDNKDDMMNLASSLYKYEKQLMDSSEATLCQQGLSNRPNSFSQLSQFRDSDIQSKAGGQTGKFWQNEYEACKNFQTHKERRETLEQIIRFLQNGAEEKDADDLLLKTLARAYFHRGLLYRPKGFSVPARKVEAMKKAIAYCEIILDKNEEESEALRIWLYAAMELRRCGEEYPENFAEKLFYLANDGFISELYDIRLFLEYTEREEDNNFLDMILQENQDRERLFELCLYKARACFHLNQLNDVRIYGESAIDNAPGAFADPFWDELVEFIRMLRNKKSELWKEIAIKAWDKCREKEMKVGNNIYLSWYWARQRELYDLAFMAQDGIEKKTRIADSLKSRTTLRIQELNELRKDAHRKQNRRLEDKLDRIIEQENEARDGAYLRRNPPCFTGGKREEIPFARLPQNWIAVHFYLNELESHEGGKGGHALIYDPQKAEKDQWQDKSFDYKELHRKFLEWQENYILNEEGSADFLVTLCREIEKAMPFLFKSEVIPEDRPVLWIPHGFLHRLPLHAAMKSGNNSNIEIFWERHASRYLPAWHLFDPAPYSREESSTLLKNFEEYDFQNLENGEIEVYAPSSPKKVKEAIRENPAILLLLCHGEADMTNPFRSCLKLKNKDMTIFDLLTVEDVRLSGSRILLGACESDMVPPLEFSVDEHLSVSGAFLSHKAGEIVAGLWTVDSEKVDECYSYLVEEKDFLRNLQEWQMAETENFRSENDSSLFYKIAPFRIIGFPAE

In the next series the target is DiCas7-11Inactive (Desulfonema ishimotonii, UniProt A0A401FT36 1-1601, D429A;D654A). The experiment in a line: cryo-EM; pre-crRNA at 1:2 molar ratio; target RNA not seen in the map; EMSA: 40 mM Tris-HCl pH 7.5, 60 mM NaCl, 6 mM MgCl2, 30 min at 4 C; 15% native PAGE; cryo-EM samples: 20 mM HEPES-NaOH pH 8.0, 300 mM NaCl, 0.5 mM DTT. The note with it: protein: recombinant; tags: N-terminal 8xHis-SUMO-TEV.
Chain of DiCas7-11Inactive (A0A401FT36 entry or part of it D429A;D654A): as the sequence (A0A401FT36 entry or part of it) above, with D429A, D654A counted along it

B1: mature crRNA in cryo-EM structures, U(-15)-A(23) (structured_RNA)
RNA: UUGAUGUCACGGAACCUUUGUUGUCUUCGACAUGGGUA
Turning to B1, the binding result with DiCas7-11, with DiCas7-11;DiTPR-CHAT NTD and with DiCas7-11;DiTPR-CHAT was “binds” in each case.

B2: single spacer pre-crRNA (ssRNA)
RNA: GGUUGGAAAGCCGGUUUUCUUUGAUGUCACGGAACCUUUGUUGUCUUCGACAUGGGUAAUCCUCAU
As to B2, the binding result in the series with DiCas7-11Inactive was “binds”.
